Data from patent publication US20230071371A1 (Scripps Research, published 2023).
Bridges are numbered along the chain shown (N, C = ends). Where no end group is shown, it is not given here. [ ]: non-standard residue; d: D form. hArg = N=C(N)NCCCC[C@H](N)C(=O)O; staple K20 = not defined here; staple K4 = not defined here; staple K5 = not defined here; staple K6 = not defined here; staple K7 = not defined here; staple K8 = not defined here; staple K9 = not defined here; Nle = CCCC[C@H](N)C(=O)O; L12 = not defined here; L1 = not defined here; L3 = not defined here; L6 = not defined here; L7 = not defined here; L8 = not defined here; L9 = not defined here; Aib = CC(C)(N)C(=O)O

B1: Conjugate 251 (peptide)
peptide: SRAHQCS[Nle]ETRTCDINPAWYTG[hArg]GIRPVGRF-NH2
modifications: linker 6-13 via L1; reading uncertain
B2: Conjugate 255 (peptide)
peptide: SRAHQCS[Nle]ETRTCDINPAWYTG[hArg]GIRPVGRF-NH2
modifications: linker 6-13 via L3; reading uncertain
B3: Conjugate 271 (peptide)
peptide: SRAHQCS[Nle]ETRTCDINPAWYTG[hArg]GIRPVGRF-NH2
modifications: linker 6-13 via L7; reading uncertain
B4: Conjugate 270 (peptide)
peptide: SRAHQCS[Nle]ETRTCDINPAWYTG[hArg]GIRPVGRF-NH2
modifications: linker 6-13 via L6; reading uncertain
B5: Conjugate 267 (peptide)
peptide: SRAHQCS[Nle]ETRTCDINPAWYTG[hArg]GIRPVGRF-NH2
modifications: linker 6-13 via L8; reading uncertain
B6: Conjugate 269 (peptide)
peptide: SRAHQCS[Nle]ETRTCDINPAWYTG[hArg]GIRPVGRF-NH2
modifications: linker 6-13 via L12; reading uncertain
B7: Conjugate 268 (peptide)
peptide: SRAHQCS[Nle]ETRTCDINPAWYTG[hArg]GIRPVGRF-NH2
modifications: linker 6-13 via L9; reading uncertain
B8: Conjugate 158 (peptide)
peptide: Y[Aib]EGTFTSDYSIYKDKQAA[Aib]KFKNWLKAGGPSSGAPPPS
modifications: linker 23-27 via staple K5; reading uncertain
B9: Conjugate 151 (peptide)
peptide: Y[Aib]EGTFTSDYSIYKDKQAA[Aib]KFVNWLLAGGPSSGAPPPS
modifications: linker 14-21 via staple K6; reading uncertain
B10: Conjugate 152 (peptide)
peptide: Y[Aib]EGTFTSDYSIYKDKQAA[Aib]KFVNWLLAGGPSSGAPPPS
modifications: linker 14-21 via staple K8; not fully specified; reading uncertain
B11: Conjugate 139 (peptide)
peptide: YXEGTFTSDYSIYLDKKAAXEFVKWLLAGGPSSGAPPPS
modifications: staple K5 on Lys 17, 24; Aib 2, 20
B12: Conjugate 140 (peptide)
peptide: B11 peptide
modifications: staple K4 on Lys 17, 24; Aib 2, 20
B13: Conjugate 153 (peptide)
peptide: Y[Aib]EGTFTSDYSIYKDKQAA[Aib]KFVNWLLAGGPSSGAPPPS
modifications: linker 14-21 via staple K20; reading uncertain
B14: Conjugate 150 (peptide)
peptide: Y[Aib]EGTFTSDYSIYLDKKAA[Aib]EFVKWLLAGGPSSGAPPPS
modifications: linker 17-24 via staple K7; reading uncertain
B15: Conjugate 156 (peptide)
peptide: Y[Aib]EGTFTSDYSIYKDKQAA[Aib]KFKNWLKAGGPSSGAPPPS
modifications: linker 23-27 via staple K8; reading uncertain
B16: Conjugate 154 (peptide)
peptide: Y[Aib]EGTFTSDYSIYKDKQAA[Aib]KFVNWLLAGGPSSGAPPPS
modifications: linker 14-21 via staple K7; reading uncertain
B17: Conjugate 146 (peptide)
peptide: Y[Aib]EGTFTSDYSIYLDKKAQ[Aib]AFVKWLIAQGPSSGAPPPS
modifications: linker 17-24 via staple K4; reading uncertain
B18: Conjugate 148 (peptide)
peptide: Y[Aib]EGTFTSDYSIYLDKKAA[Aib]EFVKWLLAGGPSSGAPPPS
modifications: linker 17-24 via staple K8; reading uncertain
B19: Conjugate 149 (peptide)
peptide: Y[Aib]EGTFTSDYSIYLDKKAA[Aib]EFVKWLLAGGPSSGAPPPS
modifications: linker 17-24 via staple K20; reading uncertain
B20: Conjugate 144 (peptide)
peptide: Y[Aib]EGTFTSDYSIYKDKQAA[Aib]KFVNWLLAGGPSSGAPPPS
modifications: linker 14-21 via staple K9; reading uncertain
B21: Conjugate 159 (peptide)
peptide: Y[Aib]EGTFTSDYSIYKDKQAA[Aib]KFKNWLKAGGPSSGAPPPS
modifications: linker 23-27 via staple K9; reading uncertain
B22: Conjugate 161 (peptide)
peptide: Y[Aib]EGTFTSDYSIYLDKKAQ[Aib]AFVKWLIAQGPSSGAPPPS
modifications: linker 17-24 via staple K8; reading uncertain
B23: Conjugate 155 (peptide)
peptide: Y[Aib]EGTFTSDYSIYKDKQAA[Aib]KFKNWLKAGGPSSGAPPPS
modifications: linker 23-27 via staple K6; reading uncertain
B24: Conjugate 143 (peptide)
peptide: Y[Aib]EGTFTSDYSIYLDKKAA[Aib]EFVKWLLAGGPSSGAPPPS
modifications: linker 17-24 via staple K9; reading uncertain
B25: Conjugate 163 (peptide)
peptide: Y[Aib]EGTFTSDYSIYLDKKAQ[Aib]AFVKWLIAQGPSSGAPPPS
modifications: linker 17-24 via staple K5; reading uncertain
B26: Conjugate 162 (peptide)
peptide: Y[Aib]EGTFTSDYSIYLDKKAQ[Aib]AFVKWLIAQGPSSGAPPPS
modifications: linker 17-24 via staple K20; reading uncertain
B27: Conjugate 147 (peptide)
peptide: Y[Aib]EGTFTSDYSIYLDKKAA[Aib]EFVKWLLAGGPSSGAPPPS
modifications: linker 17-24 via staple K6; reading uncertain
B28: Conjugate 164 (peptide)
peptide: Y[Aib]EGTFTSDYSIYLDKKAQ[Aib]AFVKWLIAQGPSSGAPPPS
modifications: linker 17-24 via staple K9; reading uncertain
B29: Conjugate 160 (peptide)
peptide: Y[Aib]EGTFTSDYSIYLDKKAQ[Aib]AFVKWLIAQGPSSGAPPPS
modifications: linker 17-24 via staple K6; reading uncertain

What follows are binders tested against T1, GPR10 (UniProt P49683 1-370, limits assumed) (assay: cell-based or functional assay).
T1 sequence (looked up): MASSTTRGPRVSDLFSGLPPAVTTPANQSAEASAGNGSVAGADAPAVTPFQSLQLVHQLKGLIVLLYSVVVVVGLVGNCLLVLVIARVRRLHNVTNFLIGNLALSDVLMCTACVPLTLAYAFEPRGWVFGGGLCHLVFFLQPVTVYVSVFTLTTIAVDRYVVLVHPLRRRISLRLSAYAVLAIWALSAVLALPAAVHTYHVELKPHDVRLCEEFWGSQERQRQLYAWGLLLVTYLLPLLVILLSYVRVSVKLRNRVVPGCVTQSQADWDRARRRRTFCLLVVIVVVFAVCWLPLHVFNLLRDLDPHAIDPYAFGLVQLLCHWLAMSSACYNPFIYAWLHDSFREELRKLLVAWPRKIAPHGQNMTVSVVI

Binder | GPR10 EC50
B1 | 10 nM
B2 | 9.1 nM

Target: T1, GPR10
Assay: cell-based or functional assay
Remark: another data set of the same source

Binder | GPR10 EC50 0% FBS | GPR10 EC50 10% FBS
B3 | 9 nM | 39 nM
B1 | 5.9 nM | 10 nM
B4 | 12 nM | 42 nM
B5 | 24 nM | 830 nM
B6 | 10 nM | 120 nM
B2 | 8 nM | 9.1 nM
B7 | 8.2 nM | 120 nM

These binders were tested against human NPFF2R (human, UniProt Q9Y5X5 1-522) (assay: cell-based or functional assay).
Chain of human NPFF2R (Q9Y5X5 whole entry): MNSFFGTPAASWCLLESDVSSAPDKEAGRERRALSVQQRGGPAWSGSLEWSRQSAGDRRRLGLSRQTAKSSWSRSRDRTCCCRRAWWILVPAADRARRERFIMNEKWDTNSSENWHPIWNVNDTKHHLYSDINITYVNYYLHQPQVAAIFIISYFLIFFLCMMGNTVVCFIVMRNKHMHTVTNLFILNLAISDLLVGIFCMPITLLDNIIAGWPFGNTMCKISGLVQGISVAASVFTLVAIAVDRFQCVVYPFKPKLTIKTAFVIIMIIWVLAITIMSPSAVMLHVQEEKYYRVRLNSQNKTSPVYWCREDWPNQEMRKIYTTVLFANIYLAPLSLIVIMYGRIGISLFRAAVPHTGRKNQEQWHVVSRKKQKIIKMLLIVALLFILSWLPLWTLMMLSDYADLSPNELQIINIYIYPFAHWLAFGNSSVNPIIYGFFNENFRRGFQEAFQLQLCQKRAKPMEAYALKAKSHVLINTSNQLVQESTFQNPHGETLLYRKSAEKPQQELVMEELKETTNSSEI

Binder | NPFF2R EC50 0% FBS | NPFF2R EC50 10% FBS
B3 | 130 nM | 140 nM
B1 | 920 nM | 1200 nM
B4 | 270 nM | 310 nM
B5 | 560 nM | ~10000 nM
B6 | 1600 nM | ~8000 nM
B2 | 150 nM | 220 nM
B7 | 9000 nM | > 10000 nM

Each binder was assayed against T2, human GIPR (human, UniProt P48546 22-466) (assay: cell-based or functional assay).
T2 sequence (looked up): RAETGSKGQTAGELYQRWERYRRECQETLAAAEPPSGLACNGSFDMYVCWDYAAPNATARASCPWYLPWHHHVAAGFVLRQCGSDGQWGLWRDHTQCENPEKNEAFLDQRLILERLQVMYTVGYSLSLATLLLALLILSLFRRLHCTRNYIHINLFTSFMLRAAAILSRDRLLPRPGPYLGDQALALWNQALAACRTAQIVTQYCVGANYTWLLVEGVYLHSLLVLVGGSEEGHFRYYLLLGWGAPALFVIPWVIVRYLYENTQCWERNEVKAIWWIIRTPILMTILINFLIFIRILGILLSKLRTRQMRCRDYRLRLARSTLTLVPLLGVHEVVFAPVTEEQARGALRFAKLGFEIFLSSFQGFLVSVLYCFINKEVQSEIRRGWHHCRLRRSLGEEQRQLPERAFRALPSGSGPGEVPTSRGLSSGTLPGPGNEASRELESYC

Binder | EC50 cAMP 0% FBS
B8 | 30.5 nM
B9 | 0.02 nM
B10 | 0.05 nM
B11 | 0.0026 nM
B12 | 0.0028 nM
B13 | 0.01 nM
B14 | 0.02 nM
B15 | 2.82 nM
B16 | 0.02 nM
B17 | 0.03 nM
B18 | 0.03 nM
B19 | 0.01 nM
B20 | 0.0022 nM
B21 | 0.0312 nM
B22 | 0.01 nM
B23 | 1.66 nM
B24 | 0.002 nM
B25 | 0.05 nM
B26 | 0.02 nM
B27 | 0.02 nM
B28 | 68.3 nM
B29 | 7.3 nM

These binders were tested against human GLP-1R (human, UniProt P43220 24-463) (assay: cell-based or functional assay).

Binder | EC50 cAMP 0% FBS
B8 | 98.3 nM
B9 | 0.03 nM
B11 | 0.061 nM
B12 | 0.034 nM
B13 | 0.05 nM
B14 | 0.06 nM
B15 | 14.6 nM
B16 | 0.03 nM
B17 | 0.11 nM
B18 | 0.46 nM
B19 | 0.05 nM
B20 | 0.012 nM
B21 | 1180 nM
B22 | 0.4 nM
B23 | 4.08 nM
B24 | 0.068 nM
B25 | 0.24 nM
B26 | 0.05 nM
B27 | 0.07 nM
B28 | 0.14 nM
B29 | 0.03 nM
